Publication PMC7617797, “The phosphorylated trimeric SOSS1 complex and RNA polymerase II trigger liquid-liquid phase separation at double-strand breaks”

B1: 21-mer ssDNA (pRMS630) (ssDNA)
DNA: GTGCCTTGCTAGGACATCTTT
B2: 61-mer ssDNA (ssDNA)
DNA: GACGCTGCCGAATTCTACCAGTGCCTTGCTAGGACATCTTTGCCCACCTGCAGGTTCACCC
B3: bubble DNA (dsDNA)
DNA 1: B2 DNA
DNA 2: GGGTGAACCTGCAGGTGGGCGGCTGCTCATCGTAGGTTAGTTGGTAGAATTCGGCAGCGTC
B4: R-loop (mixed)
DNA 1: B2 DNA
DNA 2: B3 DNA 2
RNA: AAAGAUGUCCUAGCAAGGCAC

How the values were obtained:
Assay in all cases: EMSA; EMSA: 25 mM Tris-HCl pH 7.5, 1 mM DTT, 5 mM MgCl2, 100 mM NaCl, 20 min at 37 C; 10 nM substrate; protein 22-167 nM (RPA 5-40 nM); 7.5% native PAGE, 0.5x TBE, 4
RPA = RPA (UniProt P27694;P15927;P35244 1-616;1-270;1-121); conditions: protein: recombinant; copies: 1;1;1; label: 5' Cy3; single strand
hSSB1 = hSSB1 (Homo sapiens, UniProt Q9BQ15 1-211); conditions: protein: recombinant, tags: His6 (2BT)
INTS3 = INTS3 (UniProt Q68E01 1-1043); conditions: protein: recombinant; tags: His6-TEV (438B); label: 5' Cy3; single strand
Sequence of INTS3 (Q68E01 whole entry): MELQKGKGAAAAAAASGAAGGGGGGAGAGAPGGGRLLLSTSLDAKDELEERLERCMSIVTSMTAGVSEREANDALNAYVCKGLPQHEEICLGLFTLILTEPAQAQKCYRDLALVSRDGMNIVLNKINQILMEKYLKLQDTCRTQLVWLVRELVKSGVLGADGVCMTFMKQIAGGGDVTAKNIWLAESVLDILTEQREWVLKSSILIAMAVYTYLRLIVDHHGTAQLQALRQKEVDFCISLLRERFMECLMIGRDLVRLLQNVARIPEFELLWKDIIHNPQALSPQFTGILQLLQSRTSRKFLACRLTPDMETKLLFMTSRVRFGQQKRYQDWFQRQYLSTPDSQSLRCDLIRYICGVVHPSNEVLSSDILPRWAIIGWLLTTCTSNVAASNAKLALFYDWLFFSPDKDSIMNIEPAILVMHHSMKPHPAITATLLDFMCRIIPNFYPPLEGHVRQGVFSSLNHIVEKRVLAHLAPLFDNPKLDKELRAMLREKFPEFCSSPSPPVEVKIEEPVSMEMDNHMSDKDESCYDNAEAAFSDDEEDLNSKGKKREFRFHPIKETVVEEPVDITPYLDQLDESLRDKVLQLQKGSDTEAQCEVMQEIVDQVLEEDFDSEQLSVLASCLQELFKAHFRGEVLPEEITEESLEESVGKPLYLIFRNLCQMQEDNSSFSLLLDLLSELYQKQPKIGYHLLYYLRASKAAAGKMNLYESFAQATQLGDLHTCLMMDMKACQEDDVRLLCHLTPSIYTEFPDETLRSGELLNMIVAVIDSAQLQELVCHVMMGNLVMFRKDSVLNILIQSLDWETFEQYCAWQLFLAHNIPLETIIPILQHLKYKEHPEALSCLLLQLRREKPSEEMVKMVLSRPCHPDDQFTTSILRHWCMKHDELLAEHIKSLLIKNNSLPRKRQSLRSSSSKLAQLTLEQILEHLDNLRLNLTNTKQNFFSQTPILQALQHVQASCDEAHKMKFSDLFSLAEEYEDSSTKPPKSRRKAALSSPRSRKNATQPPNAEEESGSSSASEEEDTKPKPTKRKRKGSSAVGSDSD

Sequence of hSSB1 (Q9BQ15 whole entry): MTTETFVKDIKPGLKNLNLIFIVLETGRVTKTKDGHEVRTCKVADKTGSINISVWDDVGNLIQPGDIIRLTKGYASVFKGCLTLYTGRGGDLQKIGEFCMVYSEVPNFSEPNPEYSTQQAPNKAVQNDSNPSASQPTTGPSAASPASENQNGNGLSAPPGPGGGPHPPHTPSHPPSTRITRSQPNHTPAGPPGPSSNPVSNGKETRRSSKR
Sequence of RPA (P27694 whole entry, chain 1 of 3): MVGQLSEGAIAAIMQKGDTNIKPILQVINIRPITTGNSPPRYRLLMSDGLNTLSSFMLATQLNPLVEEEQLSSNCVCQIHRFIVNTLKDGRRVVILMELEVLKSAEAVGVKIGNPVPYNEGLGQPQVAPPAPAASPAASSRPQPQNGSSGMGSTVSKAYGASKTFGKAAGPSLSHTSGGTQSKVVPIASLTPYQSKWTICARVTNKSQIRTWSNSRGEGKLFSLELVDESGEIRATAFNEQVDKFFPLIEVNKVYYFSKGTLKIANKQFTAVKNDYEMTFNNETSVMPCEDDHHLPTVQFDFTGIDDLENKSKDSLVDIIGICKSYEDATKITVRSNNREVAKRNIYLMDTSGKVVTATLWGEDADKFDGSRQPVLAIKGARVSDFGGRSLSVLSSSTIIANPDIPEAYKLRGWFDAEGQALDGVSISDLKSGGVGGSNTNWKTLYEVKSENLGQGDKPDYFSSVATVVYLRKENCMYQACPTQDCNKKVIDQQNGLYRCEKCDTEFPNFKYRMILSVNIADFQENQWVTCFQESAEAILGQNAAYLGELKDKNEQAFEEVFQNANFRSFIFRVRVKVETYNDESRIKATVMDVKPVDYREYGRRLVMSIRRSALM
Sequence of RPA (P15927 whole entry, chain 2 of 3): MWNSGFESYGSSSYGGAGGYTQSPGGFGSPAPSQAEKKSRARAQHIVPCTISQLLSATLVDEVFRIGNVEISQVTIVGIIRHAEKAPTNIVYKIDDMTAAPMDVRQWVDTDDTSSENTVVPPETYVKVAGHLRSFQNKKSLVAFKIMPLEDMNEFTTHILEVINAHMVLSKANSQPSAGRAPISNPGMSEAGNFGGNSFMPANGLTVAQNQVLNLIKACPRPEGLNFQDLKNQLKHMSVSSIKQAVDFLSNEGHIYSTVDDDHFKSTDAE
Sequence of RPA (P35244 whole entry, chain 3 of 3): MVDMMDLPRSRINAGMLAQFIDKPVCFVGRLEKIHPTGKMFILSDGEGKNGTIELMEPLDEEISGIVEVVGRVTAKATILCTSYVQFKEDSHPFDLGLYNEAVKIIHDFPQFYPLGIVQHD

Binder	binding result (RPA)	binding result (hSSB1; label: 5' Cy3, single strand)	binding result (INTS3)	binding result (hSSB1; label: 5' Cy3 on strand 1, blunt, 21-nt central bubble)	binding result (hSSB1; label: 5' Cy3 on strand 1, 21-nt RNA paired to strand 1 in a 21-nt bubble, 20-bp flanking duplexes)
B1	binds	no binding	–	–	–
B2	binds	binds	no binding	–	–
B3	–	–	–	no binding	–
B4	–	–	–	–	binds
